Earlier results as cited in publication PMC5167704.

Target: C4BP SCR6-8 (Homo sapiens) (UniProt P04003)
UniProt P04003, sequence (P04003 363-540): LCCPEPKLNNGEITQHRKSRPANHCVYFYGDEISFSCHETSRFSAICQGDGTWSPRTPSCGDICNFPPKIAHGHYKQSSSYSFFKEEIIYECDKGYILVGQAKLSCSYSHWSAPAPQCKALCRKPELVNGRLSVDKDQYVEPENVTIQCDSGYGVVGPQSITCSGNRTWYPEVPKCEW

## Ail (from UniProt Q56957)
  Kd: 0.76 nM
